Series [1] concerns the target T1, human amylin receptors (Homo sapiens, UniProt O60896+P30988).
T1 construct: host or cells: CHO-K1/Ga15/AMY3 cells, further stably transfected with a CRE-luciferase plasmid
T1 sequence (P30988 25-474): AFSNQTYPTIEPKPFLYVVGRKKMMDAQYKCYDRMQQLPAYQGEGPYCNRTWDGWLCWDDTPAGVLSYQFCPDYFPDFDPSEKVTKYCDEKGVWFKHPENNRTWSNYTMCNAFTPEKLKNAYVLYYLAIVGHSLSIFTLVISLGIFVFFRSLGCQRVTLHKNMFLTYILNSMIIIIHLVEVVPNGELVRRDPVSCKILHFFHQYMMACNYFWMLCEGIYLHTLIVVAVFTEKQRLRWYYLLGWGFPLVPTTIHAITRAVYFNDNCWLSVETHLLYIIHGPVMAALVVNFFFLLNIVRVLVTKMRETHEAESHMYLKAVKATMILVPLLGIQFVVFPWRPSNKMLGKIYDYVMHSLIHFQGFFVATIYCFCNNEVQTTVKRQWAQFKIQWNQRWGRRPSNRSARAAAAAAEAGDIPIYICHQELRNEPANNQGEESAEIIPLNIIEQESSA
T1 sequence (O60896 24-148 partner): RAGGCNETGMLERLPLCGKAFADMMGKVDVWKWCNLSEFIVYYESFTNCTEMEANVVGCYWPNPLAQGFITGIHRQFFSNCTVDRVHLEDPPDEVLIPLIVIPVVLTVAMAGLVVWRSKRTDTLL
The series is described as follows: Luciferase assay in stably transfected amylin receptor/CRE-luc CHO cell line. In kind it is cell-based. As to conditions: for Relative activity: EC50 ratio of Cagrilintide to the compound, Cagrilintide 100%; for EC50: amylin receptor/CRE-luc CHO cells, 24 hours incubation, luminescence.

Series [2] in a line: Heat accelerated stability assay, 40° C., detection on 10 d and 20 d. In kind it is physicochemical. The settings on record: 1 mg/mL, pH about 7.4, 40° C. As for the experimental part:
The derivatives (1 mg/mL) were mixed with sodium dihydrogen phosphate (1.42 mg/mL) and dissolved in ultrapure water. After adjusting pH to about 7.4 with hydrochloric acid/sodium hydroxide, the solution was filtered into a sterilized vial in a clean bench using a 0.22 μm sterile filter. The vial was then capped and placed into the stability test chamber at 40° C. Detections were made on 10d and 20d, and during the assay changes in the characteristics and properties of the polypeptides were observed and recorded. The sample was then centrifuged for 3 min at 10000 rpm at 4° C., and the supernatant was transferred to a liquid phase sample vial for detecting the concentration and purity of the polypeptides using liquid phase chromatography described as below.
Flow rate: 1.0 mL/min; Autosampler temperature: 25° C.; Column temperature: 25° C.; Detection wavelength: 214 nm; Mobile phase A: 110 mM phosphate buffer (pH 5.8): ACN=90:10; Mobile phase B: ACN: IPA: H2O=85:5:10; and Gradient of elution listed in Table 6: […]

Series [3] deals with T2, human amylin receptor on CHO-K1/Ga15/AMY3 cells (amylin receptor/CRE-luc cell line) (human) (UniProt P30988).
T2 sequence (looked up) 1: T1 sequence (P30988 25-474)
T2 sequence (looked up) 2: T1 sequence (O60896 24-148 partner)
The series is described as follows: cell-based or functional assay.

Starred links: 1 amine or outer side, 2 acyl side, 3 side chain; linkers in the order of their positions; H or OH if unused. Non-standard residues stand in square brackets, D forms with d. Residues, ends and D or L forms follow the SMILES beside them. Primed or numbered codes have the meaning given here. *: point of attachment. C20 diacid = O=C(O)CCCCCCCCCCCCCCCCCCC(=O)*; C18 diacid = O=C(O)CCCCCCCCCCCCCCCCC(=O)*; C16 diacid = O=C(O)CCCCCCCCCCCCCCC(=O)*; γGlu = O=C(O)[C@H](CCC(=O)[*:2])N[*:1]; Hyp = O=C(O)[C@@H]1C[C@@H](O)CN1; Inp′ = not defined here; Trx′ = not defined here; AEEA = NCCOCCOCC(=O)O

Experimental findings from US20260265329A1, “POLYPEPTIDE AND DERIVATIVE THEREOF, COMPOSITION, AND USE THEREOF” (HANGZHOU SCIWIND BIOSCIENCES CO., LTD., priority 2023, published 2026) are described below.

For the molecule `CC[C@H](C)[C@H](NC(=O)[C@@H]1CCCN1C(=O)[C@H](CCCCN)NC(=O)[C@H](CC(C)C)NC(=O)[C@H](CC(N)=O)NC(=O)[C@H](CCCNC(=N)N)NC(=O)[C@H](CO)NC(=O)[C@H](CO)NC(=O)[C@H](Cc1c[nH]cn1)NC(=O)[C@H](CCCNC(=N)N)NC(=O)[C@H](CC(C)C)NC(=O)[C@H](Cc1ccccc1)NC(=O)[C@H](CC(=O)O)NC(=O)[C@H](C)NC(=O)[C@H](CC(C)C)NC(=O)[C@H](CCCNC(=N)N)NC(=O)[C@H](CCC(N)=O)NC(=O)[C@@H](NC(=O)[C@H](C)NC(=O)[C@H](C)NC(=O)[C@@H](NC(=O)[C@H](CO)NC(=O)[C@H](CC(C)C)NC(=O)[C@H](CCC(N)=O)NC(=O)[C@H](CO)NC(=O)[C@H](C)NC(=O)CC[C@H](NC(=O)CCCCCCCCCCCCCCCCCCC(=O)O)C(=O)O)[C@@H](C)O)[C@@H](C)O)C(=O)N[C@@H](CC(C)C)C(=O)N1CCC[C@H]1C(=O)N1CCC[C@H]1C(=O)N[C@H](C(=O)N[C@@H](CC(N)=O)C(=O)N[C@H](C(=O)NCC(=O)N[C@@H](CO)C(=O)N[C@@H](CC(N)=O)C(=O)N[C@H](C(=O)N1C[C@H](O)C[C@H]1C(N)=O)[C@@H](C)O)C(C)C)[C@@H](C)O` [M54] ({C20 diacid-γGlu}-ASQLSTAATQRLADFLRHSSRNLKPILPPTNVGSNT[Hyp]-NH2), in series [1], the Relative activity is reported as 267% and the EC50 (commonly the concentration that produces a half-maximal response) came out at 0.06 nM. In addition, the “Reduction in purity, 10 d” value in series [2] is given as 11.67%. The “Reduction in purity, 20 d” value in series [2] (20 d) was determined as 20.56%.

Turning to `CC[C@H](C)[C@H](NC(=O)[C@@H]1CCCN1C(=O)[C@H](CCCCN)NC(=O)[C@H](CC(C)C)NC(=O)[C@H](CC(N)=O)NC(=O)[C@H](CCC(N)=O)NC(=O)[C@H](CO)NC(=O)[C@H](CO)NC(=O)[C@H](Cc1c[nH]cn1)NC(=O)[C@H](CCCNC(=N)N)NC(=O)[C@H](CC(C)C)NC(=O)[C@H](Cc1ccccc1)NC(=O)[C@H](CC(=O)O)NC(=O)[C@H](C)NC(=O)[C@H](CC(C)C)NC(=O)[C@H](CCCNC(=N)N)NC(=O)[C@H](CCC(N)=O)NC(=O)[C@@H](NC(=O)[C@H](C)NC(=O)[C@H](C)NC(=O)[C@@H](NC(=O)[C@H](CO)NC(=O)[C@H](CC(C)C)NC(=O)[C@H](CCC(N)=O)NC(=O)[C@H](CO)NC(=O)[C@H](C)NC(=O)CC[C@H](NC(=O)CCCCCCCCCCCCCCCCCCC(=O)O)C(=O)O)[C@@H](C)O)[C@@H](C)O)C(=O)N[C@@H](CC(C)C)C(=O)N1CCC[C@H]1C(=O)N1CCC[C@H]1C(=O)N[C@H](C(=O)N[C@@H](CC(N)=O)C(=O)N[C@H](C(=O)NCC(=O)N[C@@H](CO)C(=O)N[C@@H](CC(N)=O)C(=O)N[C@H](C(=O)N1C[C@H](O)C[C@H]1C(N)=O)[C@@H](C)O)C(C)C)[C@@H](C)O` [M46] ({C20 diacid-γGlu}-ASQLSTAATQRLADFLRHSSQNLKPILPPTNVGSNT[Hyp]-NH2), in series [1], the Relative activity was found to be 150% and a half-maximal response (EC50) required 0.06 nM. In series [2], the “Reduction in purity, 10 d” value is given as 8.69%.

B1: M34 (peptide)
peptide: {C20 diacid}-D[AEEA][AEEA]ASQLSTAATQRLADFLRHSSNNLKPILPPTNVGSNT[Hyp]-NH2
SMILES: CC[C@H](C)[C@H](NC(=O)[C@@H]1CCCN1C(=O)[C@H](CCCCN)NC(=O)[C@H](CC(C)C)NC(=O)[C@H](CC(N)=O)NC(=O)[C@H](CC(N)=O)NC(=O)[C@H](CO)NC(=O)[C@H](CO)NC(=O)[C@H](Cc1c[nH]cn1)NC(=O)[C@H](CCCNC(=N)N)NC(=O)[C@H](CC(C)C)NC(=O)[C@H](Cc1ccccc1)NC(=O)[C@H](CC(=O)O)NC(=O)[C@H](C)NC(=O)[C@H](CC(C)C)NC(=O)[C@H](CCCNC(=N)N)NC(=O)[C@H](CCC(N)=O)NC(=O)[C@@H](NC(=O)[C@H](C)NC(=O)[C@H](C)NC(=O)[C@@H](NC(=O)[C@H](CO)NC(=O)[C@H](CC(C)C)NC(=O)[C@H](CCC(N)=O)NC(=O)[C@H](CO)NC(=O)[C@H](C)NC(=O)COCCOCCNC(=O)COCCOCCNC(=O)[C@H](CC(=O)O)NC(=O)CCCCCCCCCCCCCCCCCCC(=O)O)[C@@H](C)O)[C@@H](C)O)C(=O)N[C@@H](CC(C)C)C(=O)N1CCC[C@H]1C(=O)N1CCC[C@H]1C(=O)N[C@H](C(=O)N[C@@H](CC(N)=O)C(=O)N[C@H](C(=O)NCC(=O)N[C@@H](CO)C(=O)N[C@@H](CC(N)=O)C(=O)N[C@H](C(=O)N1C[C@H](O)C[C@H]1C(N)=O)[C@@H](C)O)C(C)C)[C@@H](C)O
In the case of B1, in series [3], the EC50 (luciferase assay, amylin receptor/CRE-luc CHO cells) stood at 0.132 nM and the Relative activity (the EC50 ratio of Cagrilintide to the compound) was 40%.

B2: M35 (peptide)
peptide: {C20 diacid-Trx′-AEEA-AEEA}-ASQLSTAATQRLADFLRHSSNNLKPILPPTNVGSNT[Hyp]-NH2
modifications: reading uncertain
For B2, in series [3], the EC50 (luciferase assay, amylin receptor/CRE-luc CHO cells) was determined as 0.043 nM and the Relative activity (the EC50 ratio of Cagrilintide to the compound) stood at 124%.

B3: M37 (peptide)
peptide: {C18 diacid-γGlu}-ASQLSTAATQRLADFLRHSSNNLKPILPPTNVGSNT[Hyp]-NH2
SMILES: CC[C@H](C)[C@H](NC(=O)[C@@H]1CCCN1C(=O)[C@H](CCCCN)NC(=O)[C@H](CC(C)C)NC(=O)[C@H](CC(N)=O)NC(=O)[C@H](CC(N)=O)NC(=O)[C@H](CO)NC(=O)[C@H](CO)NC(=O)[C@H](Cc1c[nH]cn1)NC(=O)[C@H](CCCNC(=N)N)NC(=O)[C@H](CC(C)C)NC(=O)[C@H](Cc1ccccc1)NC(=O)[C@H](CC(=O)O)NC(=O)[C@H](C)NC(=O)[C@H](CC(C)C)NC(=O)[C@H](CCCNC(=N)N)NC(=O)[C@H](CCC(N)=O)NC(=O)[C@@H](NC(=O)[C@H](C)NC(=O)[C@H](C)NC(=O)[C@@H](NC(=O)[C@H](CO)NC(=O)[C@H](CC(C)C)NC(=O)[C@H](CCC(N)=O)NC(=O)[C@H](CO)NC(=O)[C@H](C)NC(=O)CC[C@H](NC(=O)CCCCCCCCCCCCCCCCC(=O)O)C(=O)O)[C@@H](C)O)[C@@H](C)O)C(=O)N[C@@H](CC(C)C)C(=O)N1CCC[C@H]1C(=O)N1CCC[C@H]1C(=O)N[C@H](C(=O)N[C@@H](CC(N)=O)C(=O)N[C@H](C(=O)NCC(=O)N[C@@H](CO)C(=O)N[C@@H](CC(N)=O)C(=O)N[C@H](C(=O)N1C[C@H](O)C[C@H]1C(N)=O)[C@@H](C)O)C(C)C)[C@@H](C)O
B3: in series [3], the EC50 (luciferase assay, amylin receptor/CRE-luc CHO cells) worked out at 0.03 nM and the Relative activity (the EC50 ratio of Cagrilintide to the compound) came out at 184%.

B4: M36 (peptide)
peptide: {C20 diacid-Inp′-AEEA-AEEA}-ASQLSTAATQRLADFLRHSSNNLKPILPPTNVGSNT[Hyp]-NH2
For the molecule B4, in series [3], the EC50 (luciferase assay, amylin receptor/CRE-luc CHO cells) was found to be 0.059 nM and the Relative activity (the EC50 ratio of Cagrilintide to the compound) stood at 91%.

B5: M38 (peptide)
peptide: {C16 diacid-γGlu}-ASQLSTAATQRLADFLRHSSNNLKPILPPTNVGSNT[Hyp]-NH2
SMILES: CC[C@H](C)[C@H](NC(=O)[C@@H]1CCCN1C(=O)[C@H](CCCCN)NC(=O)[C@H](CC(C)C)NC(=O)[C@H](CC(N)=O)NC(=O)[C@H](CC(N)=O)NC(=O)[C@H](CO)NC(=O)[C@H](CO)NC(=O)[C@H](Cc1c[nH]cn1)NC(=O)[C@H](CCCNC(=N)N)NC(=O)[C@H](CC(C)C)NC(=O)[C@H](Cc1ccccc1)NC(=O)[C@H](CC(=O)O)NC(=O)[C@H](C)NC(=O)[C@H](CC(C)C)NC(=O)[C@H](CCCNC(=N)N)NC(=O)[C@H](CCC(N)=O)NC(=O)[C@@H](NC(=O)[C@H](C)NC(=O)[C@H](C)NC(=O)[C@@H](NC(=O)[C@H](CO)NC(=O)[C@H](CC(C)C)NC(=O)[C@H](CCC(N)=O)NC(=O)[C@H](CO)NC(=O)[C@H](C)NC(=O)CC[C@H](NC(=O)CCCCCCCCCCCCCCC(=O)O)C(=O)O)[C@@H](C)O)[C@@H](C)O)C(=O)N[C@@H](CC(C)C)C(=O)N1CCC[C@H]1C(=O)N1CCC[C@H]1C(=O)N[C@H](C(=O)N[C@@H](CC(N)=O)C(=O)N[C@H](C(=O)NCC(=O)N[C@@H](CO)C(=O)N[C@@H](CC(N)=O)C(=O)N[C@H](C(=O)N1C[C@H](O)C[C@H]1C(N)=O)[C@@H](C)O)C(C)C)[C@@H](C)O
For B5, in series [3], the EC50 (luciferase assay, amylin receptor/CRE-luc CHO cells) stood at 0.03 nM and the Relative activity (the EC50 ratio of Cagrilintide to the compound) was found to be 181%.
